Assays:
[1] = target: T1, Ndm, two-subunit N-demethylase component purified from Pseudomonas putida CBB5 (UniProt H9N289)
T1 sequence 1: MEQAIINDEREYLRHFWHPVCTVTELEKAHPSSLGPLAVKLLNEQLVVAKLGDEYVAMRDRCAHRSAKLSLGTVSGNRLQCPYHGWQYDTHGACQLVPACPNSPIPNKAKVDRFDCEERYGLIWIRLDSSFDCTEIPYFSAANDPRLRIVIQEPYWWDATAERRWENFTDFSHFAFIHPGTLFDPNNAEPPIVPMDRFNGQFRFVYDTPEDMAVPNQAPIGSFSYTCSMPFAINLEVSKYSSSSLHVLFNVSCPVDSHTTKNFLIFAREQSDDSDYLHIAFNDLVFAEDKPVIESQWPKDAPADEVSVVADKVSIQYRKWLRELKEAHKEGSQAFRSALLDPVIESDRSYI
T1 sequence 2: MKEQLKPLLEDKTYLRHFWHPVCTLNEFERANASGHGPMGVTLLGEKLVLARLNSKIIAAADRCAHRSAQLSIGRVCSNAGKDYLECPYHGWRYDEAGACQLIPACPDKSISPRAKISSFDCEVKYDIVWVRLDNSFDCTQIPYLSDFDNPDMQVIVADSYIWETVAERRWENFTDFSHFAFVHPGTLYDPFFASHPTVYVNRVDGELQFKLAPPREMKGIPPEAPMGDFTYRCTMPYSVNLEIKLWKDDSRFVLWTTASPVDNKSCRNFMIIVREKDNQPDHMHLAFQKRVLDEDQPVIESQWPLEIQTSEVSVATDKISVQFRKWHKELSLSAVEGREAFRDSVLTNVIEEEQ

NdmB-His6, H9N290 = target: T2, NdmB-His6, H9N290
T2 chain: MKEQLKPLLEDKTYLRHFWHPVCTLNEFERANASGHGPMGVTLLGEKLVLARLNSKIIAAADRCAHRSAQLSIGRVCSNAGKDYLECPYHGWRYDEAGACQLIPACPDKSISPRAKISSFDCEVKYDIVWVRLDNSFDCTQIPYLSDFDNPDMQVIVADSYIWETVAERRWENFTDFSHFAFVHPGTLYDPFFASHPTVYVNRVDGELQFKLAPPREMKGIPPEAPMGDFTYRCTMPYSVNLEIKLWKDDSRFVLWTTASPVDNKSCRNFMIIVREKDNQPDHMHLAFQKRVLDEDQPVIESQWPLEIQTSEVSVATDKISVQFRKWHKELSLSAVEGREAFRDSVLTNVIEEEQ

NdmA-His6, H9N289 = target: T3, NdmA-His6, H9N289
T3 chain: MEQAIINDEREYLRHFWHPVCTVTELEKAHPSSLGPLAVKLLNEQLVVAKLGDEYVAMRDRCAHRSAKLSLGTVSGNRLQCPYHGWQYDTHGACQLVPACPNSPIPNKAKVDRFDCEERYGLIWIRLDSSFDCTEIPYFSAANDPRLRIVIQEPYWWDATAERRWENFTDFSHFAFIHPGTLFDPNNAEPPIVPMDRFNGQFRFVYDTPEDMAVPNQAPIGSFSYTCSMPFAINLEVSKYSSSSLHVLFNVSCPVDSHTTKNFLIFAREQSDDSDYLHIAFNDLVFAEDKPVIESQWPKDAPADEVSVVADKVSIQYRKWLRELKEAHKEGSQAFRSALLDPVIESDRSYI

[2] = target: T4, Ndm, two-subunit N-demethylase component purified from Pseudomonas putida CBB5, H9N289
T4 chain 1: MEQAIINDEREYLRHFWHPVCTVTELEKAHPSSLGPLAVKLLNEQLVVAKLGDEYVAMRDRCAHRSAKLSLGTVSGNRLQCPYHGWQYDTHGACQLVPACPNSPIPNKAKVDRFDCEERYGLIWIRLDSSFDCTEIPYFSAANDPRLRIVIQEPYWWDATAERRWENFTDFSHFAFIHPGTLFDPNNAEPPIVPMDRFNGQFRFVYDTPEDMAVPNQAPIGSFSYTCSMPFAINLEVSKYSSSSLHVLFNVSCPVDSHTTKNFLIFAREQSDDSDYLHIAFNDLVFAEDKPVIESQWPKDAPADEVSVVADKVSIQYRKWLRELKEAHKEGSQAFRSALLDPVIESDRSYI
T4 chain 2: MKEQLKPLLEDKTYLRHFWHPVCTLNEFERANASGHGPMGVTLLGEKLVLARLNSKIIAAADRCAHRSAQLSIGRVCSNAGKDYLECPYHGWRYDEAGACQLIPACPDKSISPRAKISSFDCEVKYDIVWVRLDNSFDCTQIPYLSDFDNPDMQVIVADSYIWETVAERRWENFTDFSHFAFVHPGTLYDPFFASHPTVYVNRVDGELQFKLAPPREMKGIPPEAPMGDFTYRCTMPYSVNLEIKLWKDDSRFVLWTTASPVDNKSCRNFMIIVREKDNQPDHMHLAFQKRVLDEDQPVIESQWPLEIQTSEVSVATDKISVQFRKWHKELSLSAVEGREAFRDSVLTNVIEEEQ

With “Ccr, reductase component with cytochrome c reductase activity (partially purified fraction from Pseudomonas putida CBB5)” the N-demethylase activity [1] was “No N-demethylase activity was observed when purified Ndm was assayed without the Ccr fraction”.

B1: His6-NdmD (protein)
chain: HHHHHHSSGLVPRGSHMNKLDVNQWFPIATTEDLPKRHVFHATLLGQEMAIWRDDSGSVNAWENRCPHRGLNTLGANTGNELRCQYHGWTYESGTGGCTFVPAHRDAPPPNAARVNTFPVREKHGFIWTTLGQPPGEPISILDDAQLVNAVKTNLHSVVIDADIDGVVSVLRQNLSAFIDVFGAASAEDLHLKSMLQDRGILVTRSGSIAIHFYMQRSTISKCVVHAQVLTPGRPGYELQKNYSYAMNVIRRAAEAVATDLISITDISDQTIEKLEVVRENMTKAPPTHYICEVVTRTQETGDINSYWLKPIGYPLPAFSPGMHISITTPEGSIRQYSLVNGPDERESFIIGVKKEIGSRGGSRSMHEDVKVGTQLKVTLPRNGFPLVQTRKHPILVAGGIGITPILCMAGALDQQGSSYEIHYFARAFEHVPFQDRLTALGDRLNVHLGLGPDETRAKLPDIMEIHNAQDVDVYTCGPQPMIETVSAVALAHGIAEESIRFEFFSKKNDVPVSDEEYEVELKKTGQIFTVSPGSTLLQACLDNDVRIEASCEQGVCGTCITPVVSGDLEHHDTYLSKKERESGKWIMPCVSRCKSKKIVLDL
For B1, the “N-demethylation of theobromine to 7-methylxanthine (HPLC)” value (NdmB-His6, H9N290) was “NdmB-His6 with His6-NdmD, theobromine, NADH, and Fe^2+ resulted in stoichiometric demethylation at N3 of theobromine to 7-methylxanthine” and the “N-demethylation of caffeine to theobromine (HPLC)” value (NdmA-His6, H9N289) was “when NdmA-His6 was incubated with His6-NdmD, caffeine, NADH, and exogenous Fe^2+, caffeine was stoichiometrically demethylated at N1 to theobromine”.

B2: Reductase of Pseudomonas sp. 9816 naphthalene dioxygenase (protein)
chain: MELLIQPNNRIIPFSAGANLLEVLRENGVAISYSCLSGRCGTCRCRVIDGSVIDSGAENGQSNLTDKQYVLACQSVLTGNCAIEVPEADEIVTHPARIIKGTVVAVESPTHDIRRLRVRLSKPFEFSPGQYATLQFSPEHARPYSMAGLPDDQEMEFHIRKVPGGRVTEYVFEHVREGTSIKLSGPLGTAYLRQKHTGPMLCVGGGTGLAPVLSIVRGALKSGMTNPILLYFGVRSQQDLYDAERLHKLAADHPQLTVHTVIATGPINEGQRAGLITDVIEKDILSLAGWRAYLCGAPAMVEALCTVTKHLGISPEHIYADAFYPGGI
For B2, the N-demethylase activity [2] was “Ndm did not function in the presence of the reductase and ferredoxin components of Pseudomonas sp. 9816 naphthalene dioxygenase”.

B3: Spinach ferredoxin reductase (protein)
chain: QIASDVEAPPPAPAKVEKHSKKMEEGITVNKFKPKTPYVGRCLLNTKITGDDAPGETWHMVFSHEGEIPYREGQSVGVIPDGEDKNGKPHKLRLYSIASSALGDFGDAKSVSLCVKRLIYTNDAGETIKGVCSNFLCDLKPGAEVKLTGPVGKEMLMPKDPNATIIMLGTGTGIAPFRSFLWKMFFEKHDDYKFNGLAWLFLGVPTSSSLLYKEEFEKMKEKAPDNFRLDFAVSREQTNEKGEKMYIQTRMAQYAVELWEMLKKDNTYFYMCGLKGMEKGIDDIMVSLAAAEGIDWIEYKRQLKKAEQWNVEVY
With B3 the N-demethylase activity [2] was “Ndm did not couple with ferredoxin reductase plus ferredoxin from spinach”.

From patent US20140227729
